2 molecules from PMC6994259 (Nature, 2020) can be followed below.

The chains are these.
B1: Taf12 (natural protein)
chain: MSSNPENSGVNANNNTGTGNADAITGAQQNMVLQPRQLQEMAAKFRTLLTEARNVGETTPRGKELMFQAAKIKQVYDALTLNRRRQQAAQAYNNTSNSNSSNPASIPTENVPNSSQQQQQQQQQTRNNSNKFSNMIKQVLTPEENQEYEKLWQNFQVRHTSIKEKETYLKQNIDRLEQEINKQTDEGPKQQLQEKKIELLNDWKVLKIEYTKLFNNYQNSKKTFYVECARHNPALHKFLQESTQQQRVQQQRVQQQQQQQQQQQQQQQQQQQQQQQRQGQNQRKISSSNSTEIPSVTGPDALKSQQQQQNTITATNNPRGNVNTSQTEQSKAKVTNVNATASMLNNISSSKSAIFKQTEPAIPISENISTKTPAPVAYRSNRPTITGGSAMNASALNTPATTKLPPYEMDTQRVMSKRKLRELVKTVGIDEGDGETVIDGDVEELLLDLADDFVTNVTAFSCRLAKHRKSDNLEARDIQLHLERNWNIRIPGYSADEIRSTRKWNPSQNYNQKLQSITSDKVAAAKNNGNNVASLNTKK

What all share (test): cryo-EM structure
In experiment [1] the target is T1, Sgf73 (S. cerevisiae, UniProt P53165 1-657).
T1 sequence: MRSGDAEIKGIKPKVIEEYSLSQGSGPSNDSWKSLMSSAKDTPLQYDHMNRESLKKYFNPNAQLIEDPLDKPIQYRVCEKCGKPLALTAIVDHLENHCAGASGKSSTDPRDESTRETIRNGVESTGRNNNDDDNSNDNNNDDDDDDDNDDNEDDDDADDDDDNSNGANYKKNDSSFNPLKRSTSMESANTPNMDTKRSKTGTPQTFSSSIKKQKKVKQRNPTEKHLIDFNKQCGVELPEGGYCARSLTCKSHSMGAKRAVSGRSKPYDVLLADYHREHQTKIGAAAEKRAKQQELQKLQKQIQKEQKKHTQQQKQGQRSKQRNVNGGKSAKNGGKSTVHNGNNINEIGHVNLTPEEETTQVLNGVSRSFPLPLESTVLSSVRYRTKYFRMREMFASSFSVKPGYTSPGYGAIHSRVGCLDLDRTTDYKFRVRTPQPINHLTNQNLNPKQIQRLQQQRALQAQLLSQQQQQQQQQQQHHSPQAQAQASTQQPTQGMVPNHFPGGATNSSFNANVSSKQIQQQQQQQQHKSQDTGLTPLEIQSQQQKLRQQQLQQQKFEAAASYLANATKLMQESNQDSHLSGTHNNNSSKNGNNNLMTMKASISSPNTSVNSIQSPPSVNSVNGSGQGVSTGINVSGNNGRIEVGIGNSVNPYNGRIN

In experiment [2] the target is Tra1 (S. cerevisiae, UniProt P38811 1-3744).
Experiment [3] concerns the target T2, Spt20 (S. cerevisiae, UniProt P50875 1-604).
T2 sequence: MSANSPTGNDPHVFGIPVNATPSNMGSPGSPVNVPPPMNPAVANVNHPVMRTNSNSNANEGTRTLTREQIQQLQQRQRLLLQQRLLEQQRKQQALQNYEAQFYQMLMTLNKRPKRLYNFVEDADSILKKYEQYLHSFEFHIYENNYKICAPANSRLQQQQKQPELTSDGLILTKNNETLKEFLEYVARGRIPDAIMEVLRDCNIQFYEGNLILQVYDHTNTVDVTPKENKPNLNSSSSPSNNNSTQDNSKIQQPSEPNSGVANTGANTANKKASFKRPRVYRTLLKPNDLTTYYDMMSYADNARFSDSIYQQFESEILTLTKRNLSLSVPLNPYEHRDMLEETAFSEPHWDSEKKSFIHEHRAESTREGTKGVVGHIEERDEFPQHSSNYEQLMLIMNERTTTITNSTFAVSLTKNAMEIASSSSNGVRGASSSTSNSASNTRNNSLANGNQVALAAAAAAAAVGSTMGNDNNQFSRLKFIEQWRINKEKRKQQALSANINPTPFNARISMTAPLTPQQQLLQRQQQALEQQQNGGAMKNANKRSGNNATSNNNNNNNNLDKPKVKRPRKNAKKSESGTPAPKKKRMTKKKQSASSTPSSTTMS

The target in experiment [4] is B1.

Chain of Tra1 (P38811 whole entry): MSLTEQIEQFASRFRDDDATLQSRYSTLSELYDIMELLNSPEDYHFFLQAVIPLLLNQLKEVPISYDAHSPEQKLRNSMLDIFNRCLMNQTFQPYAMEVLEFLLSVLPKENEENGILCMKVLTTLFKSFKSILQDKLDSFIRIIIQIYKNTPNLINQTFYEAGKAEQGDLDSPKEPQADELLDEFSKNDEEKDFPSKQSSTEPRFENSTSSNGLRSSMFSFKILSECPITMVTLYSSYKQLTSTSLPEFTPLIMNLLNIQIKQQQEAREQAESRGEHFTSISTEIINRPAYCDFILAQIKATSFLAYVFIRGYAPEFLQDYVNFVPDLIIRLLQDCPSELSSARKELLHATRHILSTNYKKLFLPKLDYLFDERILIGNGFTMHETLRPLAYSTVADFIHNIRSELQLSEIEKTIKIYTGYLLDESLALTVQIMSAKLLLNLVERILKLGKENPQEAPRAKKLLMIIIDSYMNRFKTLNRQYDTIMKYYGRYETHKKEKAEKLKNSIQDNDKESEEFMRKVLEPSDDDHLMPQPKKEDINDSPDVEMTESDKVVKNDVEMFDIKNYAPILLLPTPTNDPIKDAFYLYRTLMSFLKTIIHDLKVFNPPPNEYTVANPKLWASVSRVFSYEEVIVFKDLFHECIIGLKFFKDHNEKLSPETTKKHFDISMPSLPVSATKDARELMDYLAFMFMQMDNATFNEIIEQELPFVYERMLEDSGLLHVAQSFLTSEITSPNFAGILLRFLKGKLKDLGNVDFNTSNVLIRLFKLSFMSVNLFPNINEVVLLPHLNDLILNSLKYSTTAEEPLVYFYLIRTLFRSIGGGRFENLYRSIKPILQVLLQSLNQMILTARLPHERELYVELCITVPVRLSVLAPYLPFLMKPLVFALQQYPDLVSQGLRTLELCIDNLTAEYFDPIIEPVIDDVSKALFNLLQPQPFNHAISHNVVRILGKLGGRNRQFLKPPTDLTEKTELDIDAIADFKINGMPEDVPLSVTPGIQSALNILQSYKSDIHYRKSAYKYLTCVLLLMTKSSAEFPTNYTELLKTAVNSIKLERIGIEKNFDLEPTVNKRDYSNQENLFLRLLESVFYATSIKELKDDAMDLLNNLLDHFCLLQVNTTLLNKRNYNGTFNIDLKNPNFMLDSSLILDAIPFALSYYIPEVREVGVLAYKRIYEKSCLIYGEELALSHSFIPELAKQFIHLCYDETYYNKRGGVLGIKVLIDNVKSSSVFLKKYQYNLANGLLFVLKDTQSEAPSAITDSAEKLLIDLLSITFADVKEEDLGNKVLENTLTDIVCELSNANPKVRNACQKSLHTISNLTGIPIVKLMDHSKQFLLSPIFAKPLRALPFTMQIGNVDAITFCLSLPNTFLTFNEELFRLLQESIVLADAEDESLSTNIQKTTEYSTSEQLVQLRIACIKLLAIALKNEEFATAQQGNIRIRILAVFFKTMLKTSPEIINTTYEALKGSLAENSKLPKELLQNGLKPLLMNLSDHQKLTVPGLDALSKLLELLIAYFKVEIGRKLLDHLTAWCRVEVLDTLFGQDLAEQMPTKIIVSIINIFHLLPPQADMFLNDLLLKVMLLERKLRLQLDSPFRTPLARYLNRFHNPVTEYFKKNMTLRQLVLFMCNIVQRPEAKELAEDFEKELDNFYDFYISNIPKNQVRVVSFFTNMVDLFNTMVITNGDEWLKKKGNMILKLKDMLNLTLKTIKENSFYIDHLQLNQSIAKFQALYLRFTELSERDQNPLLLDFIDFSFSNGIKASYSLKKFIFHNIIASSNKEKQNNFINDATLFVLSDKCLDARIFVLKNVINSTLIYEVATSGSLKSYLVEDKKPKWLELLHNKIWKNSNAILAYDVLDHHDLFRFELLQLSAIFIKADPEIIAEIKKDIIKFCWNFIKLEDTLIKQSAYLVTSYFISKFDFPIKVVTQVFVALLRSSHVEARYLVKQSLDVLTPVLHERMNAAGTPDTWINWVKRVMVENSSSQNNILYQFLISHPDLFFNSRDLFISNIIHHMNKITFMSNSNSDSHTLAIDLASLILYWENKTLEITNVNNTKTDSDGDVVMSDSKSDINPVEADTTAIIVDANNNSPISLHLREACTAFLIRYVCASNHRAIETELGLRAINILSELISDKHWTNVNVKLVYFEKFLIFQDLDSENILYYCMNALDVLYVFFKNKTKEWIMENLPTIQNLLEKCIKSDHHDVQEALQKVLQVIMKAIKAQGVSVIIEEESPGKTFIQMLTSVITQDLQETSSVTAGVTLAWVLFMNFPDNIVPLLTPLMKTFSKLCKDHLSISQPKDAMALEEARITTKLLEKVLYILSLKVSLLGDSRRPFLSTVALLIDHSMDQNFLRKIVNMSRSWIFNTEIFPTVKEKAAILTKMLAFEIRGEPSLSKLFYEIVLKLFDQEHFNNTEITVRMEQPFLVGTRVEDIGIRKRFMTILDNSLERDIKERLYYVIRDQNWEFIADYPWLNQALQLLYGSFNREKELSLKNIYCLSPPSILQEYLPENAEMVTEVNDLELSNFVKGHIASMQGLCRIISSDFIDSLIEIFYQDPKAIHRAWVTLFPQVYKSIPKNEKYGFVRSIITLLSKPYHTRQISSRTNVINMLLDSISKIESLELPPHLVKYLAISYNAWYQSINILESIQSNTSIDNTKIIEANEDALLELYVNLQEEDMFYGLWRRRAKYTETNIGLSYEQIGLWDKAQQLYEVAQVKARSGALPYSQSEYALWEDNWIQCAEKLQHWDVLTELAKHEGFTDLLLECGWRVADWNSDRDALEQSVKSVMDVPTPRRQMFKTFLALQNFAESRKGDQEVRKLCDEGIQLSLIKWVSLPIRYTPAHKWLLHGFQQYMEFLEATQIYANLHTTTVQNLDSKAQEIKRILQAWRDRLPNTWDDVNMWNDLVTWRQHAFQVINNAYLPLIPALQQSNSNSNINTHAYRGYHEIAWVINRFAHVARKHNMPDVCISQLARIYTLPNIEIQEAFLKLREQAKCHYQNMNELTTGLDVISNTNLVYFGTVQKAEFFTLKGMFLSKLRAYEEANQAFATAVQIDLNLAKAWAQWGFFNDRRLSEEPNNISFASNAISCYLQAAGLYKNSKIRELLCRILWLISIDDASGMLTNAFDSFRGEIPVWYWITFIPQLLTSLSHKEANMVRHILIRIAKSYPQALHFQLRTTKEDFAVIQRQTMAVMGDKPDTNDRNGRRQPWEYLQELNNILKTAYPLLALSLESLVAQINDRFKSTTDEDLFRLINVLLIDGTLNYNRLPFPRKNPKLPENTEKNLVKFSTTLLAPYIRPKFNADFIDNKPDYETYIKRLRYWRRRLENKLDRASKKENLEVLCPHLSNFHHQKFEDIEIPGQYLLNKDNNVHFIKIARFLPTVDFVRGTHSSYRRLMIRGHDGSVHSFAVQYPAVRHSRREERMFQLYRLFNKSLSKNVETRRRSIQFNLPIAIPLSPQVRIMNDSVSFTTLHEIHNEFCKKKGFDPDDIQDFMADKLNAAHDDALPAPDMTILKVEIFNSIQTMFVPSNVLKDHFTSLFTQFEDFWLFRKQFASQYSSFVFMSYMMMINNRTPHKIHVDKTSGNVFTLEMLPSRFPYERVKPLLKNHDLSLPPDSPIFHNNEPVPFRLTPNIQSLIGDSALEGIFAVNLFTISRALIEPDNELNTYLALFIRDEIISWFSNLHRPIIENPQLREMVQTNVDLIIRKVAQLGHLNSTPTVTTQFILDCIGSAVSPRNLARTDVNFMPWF

In the case of B1, the binding result in experiment [1], in experiment [2] and in experiment [3] was “binds” each time.

B2: Ada1 (natural protein)
chain: MSAIQSPAPKPLQPTYPAASPASTNAYMKPGLIGSPAVSNHTEPNNGNNETAEPQGPNQRIDLGAMIEELTSLLGKESWTKYAQIISLFILGKLSRKELSNELELVFSPSAASLEKSNTNHHHSLVRLHNQLLLGIFANSLRENPLGRNGNESSWGFGNGSNNPNNKLKRINKHNSQIEVYKKIVMSLPLNDRNRLKMITKEAGKRGFIFCSVFQARLNNIPKIPIVTNPESLKRVKSNNLKTPLEWSQDIMNGFNVPLASESHSLPDTDSFYLRMVGIAREHGLVGTVDARCVELISLALDQYLKNIIEFTIDTVRYRRKKYSDYYDLNESGLYKSVSEMAADKRDAKIKQLDDDKNEDECADEAKSINNGNNSSKDDIGDISMSSITKAGEAVNEELHENRTISLTNEDIYDSLSIFPNLVEPSGSYYALTNLGLVNDDELVDMKSNIDDLPDFLNEKPTFTPLDERNVGTRHELNWLIKGILTED
For the molecule B2, the binding result in experiment [4] and in experiment [1] was “binds” in each case.
